Reference: the supplement of paper PMC7125110
± gives the standard error. Variants at the floor of the assay were thinned out.

B1: glmS ribozyme (parent)
chain: AUAAAAGCGCCAGAACUACAGAAAUGUAGUUGACGAGGAGGAGGUUUAUCGAAUUUUCGGCGGAUGCCUCCAAA

Columns and labels:
Details in all cases: with glucosamine-6-phosphate
glucosamine-6-phosphate [1] = variants of: B1; assay: self-cleavage kobs at 40 uM GlcN6P; higher = faster cleavage; RNA array
Summary of the method: (§1)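 Barcoded ribozyme variants, transcribed in situ by E. coli RNA polymerase on sequenced MiSeq chips, were followed via a hybridised Cy3 probe at 37 °C. Glucosamine-6-phosphate ranged from 40 μM to 10 mM in HEPES/KCl/Mg(OAc)2 buffer. kobs came from decay fits to per-tile medians, and kcat and KM from weighted Michaelis–Menten fits.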

glucosamine-6-phosphate [2] = variants of: B1; assay: self-cleavage kobs at 2500 uM GlcN6P; higher = faster cleavage; RNA array
Summary of the method: as §1

glucosamine-6-phosphate [3] = variants of: B1; assay: self-cleavage kobs at 10000 uM GlcN6P; higher = faster cleavage; RNA array
Summary of the method: as §1

glucosamine-6-phosphate [4] = variants of: B1; assay: self-cleavage kobs at 160 uM GlcN6P; higher = faster cleavage; RNA array
Summary of the method: as §1

glucosamine-6-phosphate [5] = variants of: B1; assay: self-cleavage kobs at 640 uM GlcN6P; higher = faster cleavage; RNA array
Summary of the method: as §1

Row | Variant | self-cleavage kobs at 40 uM GlcN6P (glucosamine-6-phosphate [1]) [s⁻¹] | self-cleavage kobs at 2500 uM GlcN6P (glucosamine-6-phosphate [2]) [s⁻¹] | self-cleavage kobs at 10000 uM GlcN6P (glucosamine-6-phosphate [3]) [s⁻¹] | self-cleavage kobs at 160 uM GlcN6P (glucosamine-6-phosphate [4]) [s⁻¹] | self-cleavage kobs at 640 uM GlcN6P (glucosamine-6-phosphate [5]) [s⁻¹]
1 | AUAAAAGCGCUAAAACUACAGAAAUGUAGUUGACGAGGAGGAGGUUUAUCGAAUUUUCGGCGGAUGCCUCCAAA [C11U G13A] | < 1e-05 | 3.03e-05 ± 1.4e-05 | 6.97e-05 ± 1.7e-05 | – | –
2 | AUAAAGGCGCCAGAGCUACAGAAAUGUAGUUGACGAGGAGGAGGUUUAUCGAAUUUUCGGCGGAUGCCUCUAAA [A6G A15G C71U] | < 1e-05 | – | – | – | –
3 | AUAAAAGCGCCAGAACUACAGAAAUGUAGUUGACGAGGAGGAGGUUUAUCGCAUUCUCGGCGGAUGCCUCCAAA [A52C U56C] | < 1e-05 | < 1e-05 | – | – | –
4 | AUAAAAGCGCCAGAGCUACAGAAAUGUAAUUGACGAGGAGGAGGUUUAUCGAAUUUUCGGCGGAUGCCUCCAAA [A15G G29A] | 0.000133 ± 3.8e-05 | 0.00164 ± 0.00031 | 0.0196 ± 0.0068 | 0.000309 ± 8.6e-05 | 0.00108 ± 0.00019
5 | AUAAAAGCGCCAGAGCUACAGAAAAGUAGUUGACGAGGAGGAGGUUUAUGGAAUUUUCGGCGGAUGCCUUCAAA [A15G U25A C50G C70U] | 6.43e-05 ± 1.3e-05 | – | 6.03e-05 ± 1.6e-05 | – | –
6 | AUAAAAGCGCCAGAACUACAGAAAUGUAGUUGACGAGGAGGAGGUAUAUCAAAUUUUCGGCGGAUGCCUCCAAA [U46A G51A] | < 1e-05 | < 1e-05 | < 1e-05 | < 1e-05 | –
7 | AUAAAAGCGCCAGAACUACAGACAUGUAGUUGACGAGGAGGAGGUUUAUCGAAUUUUCGGCGGAUGCCUCUAAA [A23C C71U] | 0.00121 ± 0.0003 | – | – | 0.000719 ± 0.0002 | 0.00652 ± 0.0018
8 | AUAAAAGCGCCCGAACUACAGAAAUGUAGUUGACGAGGAGGAGGUUUAUCGAAUUUUCGGCGGUUGCGUCCAAA [A12C A64U C68G] | < 1e-05 | – | – | – | –
9 | AUAAAAGCGCCAGAACUACAGAAAUGUAGUUGACGACGAGGAGGUUUAUCGAAUUUUCGGCGGAUGCAUCCAAA [G37C C68A] | < 1e-05 | – | < 1e-05 | – | –
10 | AUAAAAGCGCCAGAACUACAGAAAUGUAGUUGACGAGGAGGAGGUUUACCGAAUUUUCCGCGGAUGCCUCCAAA [U49C G59C] | < 1e-05 | < 1e-05 | < 1e-05 | – | –
11 | AUAAAAGCGCCAAAACUACAGAAAUGUAGUUGACGAGGAGGAGGUGUAUCGAAUUUUCGGCGGAUGCCUCCAAA [G13A U46G] | < 1e-05 | – | 0.00013 ± 3e-05 | < 1e-05 | –
12 | AUAAAAGCGCCAGAACUACAGAAAUGUAGUUGACGAGGAGGAGGUUUAUCGAAUUUUCGGCGGCUGGCUCCAAA [A64C C67G] | < 1e-05 | < 1e-05 | – | < 1e-05 | < 1e-05
13 | AUAAAAGCGCCAGAACUACAGAAAUGUAGUUGACGAGGAGGAGGUUUAUCGGAGUUUCGGGGGAUGCCUCCAAA [A52G U54G C61G] | < 1e-05 | – | – | – | –
14 | AUAAAAUCGCCAGAACUACAGAAAUGUAGUUGACGAGGAGGUGCUUUAUCGAAUUUUCGGCGGAUGCCUCCAAA [G7U A42U G44C] | < 1e-05 | – | < 1e-05 | – | –
15 | AUAAAAGCGCCAGAACUACAGAAAUGUAGUUGACGAGGAGGAGGUUUCUCGAAUUUUCGGCGGAUGCCGCCAAA [A48C U69G] | < 1e-05 | – | < 1e-05 | < 1e-05 | –
